Source: paper PMC9482650, “Quantitative fragmentomics allow affinity mapping of interactomes” (Nature Communications, 2022)

Columns and labels:
Assay in all cases: holdup assay
Design in all cases: key: below the threshold = too weak to quantify, mostly under pKd 3.1 to 4
Details in all cases: plain residues with an end cap or a label only (N-terminal biotin on a linker: ado-ado)
GRIP1_4, Q9Y3R0 = molecular target: T1, GRIP1_4, Q9Y3R0
T1 sequence (Q9Y3R0 467-571, limits assumed, looked up): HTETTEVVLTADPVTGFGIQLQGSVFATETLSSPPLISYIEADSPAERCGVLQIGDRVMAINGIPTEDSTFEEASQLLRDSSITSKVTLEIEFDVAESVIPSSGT

LIN7B, Q9HAP6 = molecular target: T2, LIN7B, Q9HAP6
T2 sequence (Q9HAP6 88-185, limits assumed, looked up): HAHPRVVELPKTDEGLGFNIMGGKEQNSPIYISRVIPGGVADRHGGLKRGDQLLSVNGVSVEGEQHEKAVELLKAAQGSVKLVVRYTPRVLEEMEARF

TIAM2, Q8IVF5 = molecular target: T3, TIAM2, Q8IVF5
T3 sequence (Q8IVF5 885-986, limits assumed, looked up): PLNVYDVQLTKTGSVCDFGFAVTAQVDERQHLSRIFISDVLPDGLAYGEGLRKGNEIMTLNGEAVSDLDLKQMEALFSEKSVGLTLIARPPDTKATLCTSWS

NOS1, P29475 = molecular target: NOS1, P29475
NOS1, P29475, sequence (P29475 9-101): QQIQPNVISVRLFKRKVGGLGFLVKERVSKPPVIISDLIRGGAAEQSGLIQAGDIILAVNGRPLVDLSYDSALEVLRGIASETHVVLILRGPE

LNX2_3, Q8N448 = molecular target: T4, LNX2_3, Q8N448
T4 sequence (Q8N448 463-564, limits assumed, looked up): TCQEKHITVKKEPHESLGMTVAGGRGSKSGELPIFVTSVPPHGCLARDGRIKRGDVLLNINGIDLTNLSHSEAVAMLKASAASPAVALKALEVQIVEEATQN

MPP2, Q14168 = molecular target: T5, MPP2, Q14168
T5 sequence (Q14168 180-250, limits assumed, looked up): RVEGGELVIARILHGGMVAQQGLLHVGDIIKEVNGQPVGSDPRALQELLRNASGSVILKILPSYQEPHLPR

RADIL, Q96JH8 = molecular target: T6, RADIL, Q96JH8
T6 sequence (Q96JH8 971-1071, limits assumed, looked up): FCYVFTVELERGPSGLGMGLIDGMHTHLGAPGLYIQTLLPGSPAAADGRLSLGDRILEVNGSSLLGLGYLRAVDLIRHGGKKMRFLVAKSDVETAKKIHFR

IL16_4, Q14005 = molecular target: IL16_4, Q14005
IL16_4, Q14005, sequence (Q14005 1229-1329): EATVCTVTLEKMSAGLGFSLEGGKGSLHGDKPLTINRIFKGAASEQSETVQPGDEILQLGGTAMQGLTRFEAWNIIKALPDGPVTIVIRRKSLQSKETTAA

IL16_3, Q14005 = molecular target: IL16_3, Q14005
IL16_3, Q14005, sequence (Q14005 1107-1207): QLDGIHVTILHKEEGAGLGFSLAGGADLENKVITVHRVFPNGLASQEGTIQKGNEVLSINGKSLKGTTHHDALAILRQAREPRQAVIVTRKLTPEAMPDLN

HTRA3, P83110 = molecular target: T7, HTRA3, P83110
T7 sequence (P83110 354-453, limits assumed, looked up): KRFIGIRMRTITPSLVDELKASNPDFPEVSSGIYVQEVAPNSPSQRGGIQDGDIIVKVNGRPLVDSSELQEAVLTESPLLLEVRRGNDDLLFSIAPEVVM

LNX2_2, Q8N448 = molecular target: T8, LNX2_2, Q8N448
T8 sequence (Q8N448 334-432, limits assumed, looked up): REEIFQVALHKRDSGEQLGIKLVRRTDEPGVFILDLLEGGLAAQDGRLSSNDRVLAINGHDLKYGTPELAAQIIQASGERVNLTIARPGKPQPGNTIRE

MAGI2_2, Q86UL8 = molecular target: MAGI2_2, Q86UL8
MAGI2_2, Q86UL8, sequence (Q86UL8 410-522): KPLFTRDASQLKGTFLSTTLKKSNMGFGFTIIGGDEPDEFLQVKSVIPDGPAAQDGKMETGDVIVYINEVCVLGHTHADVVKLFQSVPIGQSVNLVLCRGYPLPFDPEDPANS

NHERF3_1, Q5T2W1 = molecular target: T9, NHERF3_1, Q5T2W1
T9 sequence (Q5T2W1 4-100, limits assumed, looked up): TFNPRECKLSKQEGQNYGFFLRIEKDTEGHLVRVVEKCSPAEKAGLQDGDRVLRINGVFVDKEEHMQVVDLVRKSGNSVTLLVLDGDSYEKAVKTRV

GRIP2_5, Q9C0E4 = molecular target: GRIP2_5, Q9C0E4
GRIP2_5, Q9C0E4, sequence (Q9C0E4 544-642): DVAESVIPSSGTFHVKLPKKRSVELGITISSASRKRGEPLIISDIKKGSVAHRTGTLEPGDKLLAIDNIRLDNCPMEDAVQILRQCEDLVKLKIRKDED

ARHGAP21, Q5T5U3 = molecular target: T10, ARHGAP21, Q5T5U3
T10 sequence (Q5T5U3 45-169, limits assumed, looked up): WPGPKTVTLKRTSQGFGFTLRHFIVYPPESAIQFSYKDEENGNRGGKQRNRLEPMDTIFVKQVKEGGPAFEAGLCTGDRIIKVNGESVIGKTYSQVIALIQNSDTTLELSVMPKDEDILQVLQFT

MAST2, Q6P0Q8 = molecular target: MAST2, Q6P0Q8
MAST2, Q6P0Q8, sequence (Q6P0Q8 1099-1202): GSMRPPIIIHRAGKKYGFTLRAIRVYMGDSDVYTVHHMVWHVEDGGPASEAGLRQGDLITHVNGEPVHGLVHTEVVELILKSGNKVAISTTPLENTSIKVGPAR

PARD3_3, Q8TEW0 = molecular target: PARD3_3, Q8TEW0
PARD3_3, Q8TEW0, sequence (Q8TEW0 582-685): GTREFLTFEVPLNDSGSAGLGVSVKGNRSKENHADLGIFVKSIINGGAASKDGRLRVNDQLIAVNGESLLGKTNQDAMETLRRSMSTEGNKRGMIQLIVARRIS

Inadl_2, Q8NI35 = molecular target: Inadl_2, Q8NI35
Inadl_2, Q8NI35, sequence (Q8NI35 238-335): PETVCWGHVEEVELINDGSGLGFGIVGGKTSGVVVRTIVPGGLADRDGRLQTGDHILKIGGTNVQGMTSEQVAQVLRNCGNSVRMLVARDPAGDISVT

TJP2_1, Q9UDY2 = molecular target: TJP2_1, Q9UDY2
TJP2_1, Q9UDY2, sequence (Q9UDY2 24-128): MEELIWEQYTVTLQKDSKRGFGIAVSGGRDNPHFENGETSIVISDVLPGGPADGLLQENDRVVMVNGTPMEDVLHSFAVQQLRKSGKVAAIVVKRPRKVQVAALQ

GRIP1_5, Q9Y3R0 = molecular target: T11, GRIP1_5, Q9Y3R0
T11 sequence (Q9Y3R0 568-668, limits assumed, looked up): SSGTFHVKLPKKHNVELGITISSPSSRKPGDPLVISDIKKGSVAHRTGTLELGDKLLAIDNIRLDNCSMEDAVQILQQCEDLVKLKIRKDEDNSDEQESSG

SNX27, Q96L92 = molecular target: SNX27, Q96L92
LAP2, Q96RT1 = molecular target: LAP2, Q96RT1
LAP2, Q96RT1, sequence (Q96RT1 other isoform, or with tags, fused parts or gaps): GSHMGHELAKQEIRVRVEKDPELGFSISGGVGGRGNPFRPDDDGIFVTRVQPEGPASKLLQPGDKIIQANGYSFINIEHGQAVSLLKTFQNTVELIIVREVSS

DLG3_2, Q92796 = molecular target: T12, DLG3_2, Q92796
T12 sequence (Q92796 221-321, limits assumed, looked up): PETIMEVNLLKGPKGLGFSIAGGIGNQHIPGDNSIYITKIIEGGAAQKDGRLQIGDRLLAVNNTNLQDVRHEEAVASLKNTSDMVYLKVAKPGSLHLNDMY

DLG1_1, Q12959 = molecular target: DLG1_1, Q12959
FRMPD4, Q14CM0 = molecular target: FRMPD4, Q14CM0
FRMPD4, Q14CM0, sequence (Q14CM0 67-160): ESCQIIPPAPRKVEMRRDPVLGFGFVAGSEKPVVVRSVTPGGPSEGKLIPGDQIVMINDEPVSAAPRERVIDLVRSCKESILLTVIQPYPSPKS

## QGLAERISVL [PRKD2, Q9BZL6]
GRIP1_4, Q9Y3R0
  pKd: below the threshold
LIN7B, Q9HAP6
  pKd: below the threshold
TIAM2, Q8IVF5
  pKd: below the threshold
NOS1, P29475
  pKd: 3.88
LNX2_3, Q8N448
  pKd: below the threshold
MPP2, Q14168
  pKd: below the threshold
RADIL, Q96JH8
  pKd: 3.99
IL16_4, Q14005
  pKd: 3.71
IL16_3, Q14005
  pKd: below the threshold
HTRA3, P83110
  pKd: below the threshold
LNX2_2, Q8N448
  pKd: below the threshold
MAGI2_2, Q86UL8
  pKd: below the threshold
NHERF3_1, Q5T2W1
  pKd: 4.28
GRIP2_5, Q9C0E4
  pKd: below the threshold
ARHGAP21, Q5T5U3
  pKd: 3.93
MAST2, Q6P0Q8
  pKd: 5.53
PARD3_3, Q8TEW0
  pKd: 3.68
Inadl_2, Q8NI35
  pKd: below the threshold
TJP2_1, Q9UDY2
  pKd: below the threshold
GRIP1_5, Q9Y3R0
  pKd: below the threshold
SNX27, Q96L92
  pKd: 4.78
LAP2, Q96RT1
  pKd: below the threshold
DLG3_2, Q92796
  pKd: below the threshold
DLG1_1, Q12959
  pKd: below the threshold
FRMPD4, Q14CM0
  pKd: 3.83

## NHSSSPETTA [TRMT13, Q9NUP7]
GRIP1_4, Q9Y3R0
  pKd: below the threshold
LIN7B, Q9HAP6
  pKd: below the threshold
TIAM2, Q8IVF5
  pKd: 4.02
NOS1, P29475
  pKd: below the threshold
LNX2_3, Q8N448
  pKd: below the threshold
MPP2, Q14168
  pKd: below the threshold
RADIL, Q96JH8
  pKd: below the threshold
IL16_4, Q14005
  pKd: below the threshold
IL16_3, Q14005
  pKd: below the threshold
HTRA3, P83110
  pKd: below the threshold
LNX2_2, Q8N448
  pKd: below the threshold
MAGI2_2, Q86UL8
  pKd: below the threshold
NHERF3_1, Q5T2W1
  pKd: below the threshold
GRIP2_5, Q9C0E4
  pKd: below the threshold
ARHGAP21, Q5T5U3
  pKd: below the threshold
MAST2, Q6P0Q8
  pKd: below the threshold
PARD3_3, Q8TEW0
  pKd: below the threshold
Inadl_2, Q8NI35
  pKd: below the threshold
TJP2_1, Q9UDY2
  pKd: below the threshold
GRIP1_5, Q9Y3R0
  pKd: below the threshold
SNX27, Q96L92
  pKd: below the threshold
LAP2, Q96RT1
  pKd: below the threshold
DLG3_2, Q92796
  pKd: 4.09
DLG1_1, Q12959
  pKd: below the threshold
FRMPD4, Q14CM0
  pKd: below the threshold

## SAKVRTVTSV [RASL11B, Q9BPW5]
GRIP1_4, Q9Y3R0
  pKd: below the threshold
LIN7B, Q9HAP6
  pKd: below the threshold
TIAM2, Q8IVF5
  pKd: below the threshold
NOS1, P29475
  pKd: 3.9
LNX2_3, Q8N448
  pKd: below the threshold
MPP2, Q14168
  pKd: below the threshold
RADIL, Q96JH8
  pKd: 3.94
IL16_4, Q14005
  pKd: below the threshold
IL16_3, Q14005
  pKd: below the threshold
HTRA3, P83110
  pKd: below the threshold
LNX2_2, Q8N448
  pKd: 4.9
MAGI2_2, Q86UL8
  pKd: 5.92
NHERF3_1, Q5T2W1
  pKd: below the threshold
GRIP2_5, Q9C0E4
  pKd: below the threshold
ARHGAP21, Q5T5U3
  pKd: below the threshold
MAST2, Q6P0Q8
  pKd: 5.3
PARD3_3, Q8TEW0
  pKd: below the threshold
Inadl_2, Q8NI35
  pKd: below the threshold
TJP2_1, Q9UDY2
  pKd: 4.14
GRIP1_5, Q9Y3R0
  pKd: below the threshold
SNX27, Q96L92
  pKd: 4.73
LAP2, Q96RT1
  pKd: 3.66
DLG3_2, Q92796
  pKd: 4.78
DLG1_1, Q12959
  pKd: 4.42
FRMPD4, Q14CM0
  pKd: below the threshold

## EVEEFPETSV [TRPV3, Q8NET8]
GRIP1_4, Q9Y3R0
  pKd: 3.47
LIN7B, Q9HAP6
  pKd: 4.3
TIAM2, Q8IVF5
  pKd: below the threshold
NOS1, P29475
  pKd: 4.12
LNX2_3, Q8N448
  pKd: 3.62
MPP2, Q14168
  pKd: below the threshold
RADIL, Q96JH8
  pKd: 3.81
IL16_4, Q14005
  pKd: below the threshold
IL16_3, Q14005
  pKd: below the threshold
HTRA3, P83110
  pKd: below the threshold
LNX2_2, Q8N448
  pKd: 3.98
MAGI2_2, Q86UL8
  pKd: 3.76
NHERF3_1, Q5T2W1
  pKd: 4.47
GRIP2_5, Q9C0E4
  pKd: below the threshold
ARHGAP21, Q5T5U3
  pKd: 4.15
MAST2, Q6P0Q8
  pKd: 5.5
PARD3_3, Q8TEW0
  pKd: 3.85
Inadl_2, Q8NI35
  pKd: below the threshold
TJP2_1, Q9UDY2
  pKd: below the threshold
GRIP1_5, Q9Y3R0
  pKd: below the threshold
SNX27, Q96L92
  pKd: 5.83
LAP2, Q96RT1
  pKd: 4.93
DLG3_2, Q92796
  pKd: 4.22
DLG1_1, Q12959
  pKd: 4.25
FRMPD4, Q14CM0
  pKd: 3.74

## PDGQCTVTEV [RNF146, Q9NTX7]
GRIP1_4, Q9Y3R0
  pKd: below the threshold
LIN7B, Q9HAP6
  pKd: below the threshold
TIAM2, Q8IVF5
  pKd: below the threshold
NOS1, P29475
  pKd: 3.74
LNX2_3, Q8N448
  pKd: below the threshold
MPP2, Q14168
  pKd: below the threshold
RADIL, Q96JH8
  pKd: 4.62
IL16_4, Q14005
  pKd: below the threshold
IL16_3, Q14005
  pKd: below the threshold
HTRA3, P83110
  pKd: below the threshold
LNX2_2, Q8N448
  pKd: 5.08
MAGI2_2, Q86UL8
  pKd: 3.86
NHERF3_1, Q5T2W1
  pKd: below the threshold
GRIP2_5, Q9C0E4
  pKd: below the threshold
ARHGAP21, Q5T5U3
  pKd: below the threshold
MAST2, Q6P0Q8
  pKd: 5.28
PARD3_3, Q8TEW0
  pKd: below the threshold
Inadl_2, Q8NI35
  pKd: below the threshold
TJP2_1, Q9UDY2
  pKd: below the threshold
GRIP1_5, Q9Y3R0
  pKd: below the threshold
SNX27, Q96L92
  pKd: 5.19
LAP2, Q96RT1
  pKd: 4.22
DLG3_2, Q92796
  pKd: 4.98
DLG1_1, Q12959
  pKd: 4.53
FRMPD4, Q14CM0
  pKd: below the threshold

## PAPSSGKDYV [CLDN1, O95832]
GRIP1_4, Q9Y3R0
  pKd: below the threshold
LIN7B, Q9HAP6
  pKd: below the threshold
TIAM2, Q8IVF5
  pKd: below the threshold
NOS1, P29475
  pKd: 4.06
LNX2_3, Q8N448
  pKd: below the threshold
MPP2, Q14168
  pKd: below the threshold
RADIL, Q96JH8
  pKd: 4
IL16_4, Q14005
  pKd: below the threshold
IL16_3, Q14005
  pKd: below the threshold
HTRA3, P83110
  pKd: 3.95
LNX2_2, Q8N448
  pKd: 4.07
MAGI2_2, Q86UL8
  pKd: below the threshold
NHERF3_1, Q5T2W1
  pKd: 4.08
GRIP2_5, Q9C0E4
  pKd: below the threshold
ARHGAP21, Q5T5U3
  pKd: below the threshold
MAST2, Q6P0Q8
  pKd: 3.84
PARD3_3, Q8TEW0
  pKd: below the threshold
Inadl_2, Q8NI35
  pKd: below the threshold
TJP2_1, Q9UDY2
  pKd: 3.71
GRIP1_5, Q9Y3R0
  pKd: below the threshold
SNX27, Q96L92
  pKd: 3.62
LAP2, Q96RT1
  pKd: below the threshold
DLG3_2, Q92796
  pKd: below the threshold
DLG1_1, Q12959
  pKd: below the threshold
FRMPD4, Q14CM0
  pKd: 3.59
